Like-named read-outs stand apart in the source and are kept apart here. Blank lines part the entries; values can stand above or below the binder they belong to.
Legend:
Assay in all cases: two-hybrid library CCNG1;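 note: natural log of median RNA to DNA barcode read ratio; higher means stronger binding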
O11-bS = target: T1, O11-bS
T1 chain: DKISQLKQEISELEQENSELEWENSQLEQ

O12-bS = target: T2, O12-bS
T2 chain: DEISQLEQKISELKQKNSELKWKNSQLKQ

O13-bS = target: T3, O13-bS
T3 chain: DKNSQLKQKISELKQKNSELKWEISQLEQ

O14-bS = target: T4, O14-bS
T4 chain: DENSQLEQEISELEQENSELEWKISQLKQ

O15-bS = target: T5, O15-bS
T5 chain: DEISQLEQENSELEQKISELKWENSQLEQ

O16-bS = target: T6, O16-bS
T6 chain: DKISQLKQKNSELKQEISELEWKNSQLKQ

O2-bS = target: T7, O2-bS
T7 chain: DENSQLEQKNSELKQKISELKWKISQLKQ

O3-bS = target: T8, O3-bS
T8 chain: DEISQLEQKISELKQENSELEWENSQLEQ

O4-bS = target: T9, O4-bS
T9 chain: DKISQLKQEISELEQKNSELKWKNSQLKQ

O5-bS = target: T10, O5-bS
T10 chain: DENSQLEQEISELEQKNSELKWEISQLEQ

O6-bS = target: T11, O6-bS
T11 chain: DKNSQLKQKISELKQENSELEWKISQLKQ

O7-bS = target: T12, O7-bS
T12 chain: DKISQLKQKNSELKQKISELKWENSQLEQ

O8-bS = target: T13, O8-bS
T13 chain: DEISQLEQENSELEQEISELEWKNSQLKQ

O9-bS = target: T14, O9-bS
T14 chain: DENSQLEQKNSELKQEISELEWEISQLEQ

4H1828-bN = target: T15, 4H1828-bN
T15 chain: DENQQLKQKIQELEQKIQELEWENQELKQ

4H1845-bN = target: T16, 4H1845-bN
T16 chain: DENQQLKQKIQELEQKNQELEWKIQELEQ

4H2442-bN = target: T17, 4H2442-bN
T17 chain: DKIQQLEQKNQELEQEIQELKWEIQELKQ

4H2576-bN = target: T18, 4H2576-bN
T18 chain: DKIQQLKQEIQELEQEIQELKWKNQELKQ

4H2618-bN = target: T19, 4H2618-bN
T19 chain: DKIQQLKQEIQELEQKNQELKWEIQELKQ

4H2667-bN = target: T20, 4H2667-bN
T20 chain: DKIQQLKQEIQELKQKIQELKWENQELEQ

4H2697-bN = target: T21, 4H2697-bN
T21 chain: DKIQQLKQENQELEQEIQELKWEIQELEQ

4H2729-bN = target: T22, 4H2729-bN
T22 chain: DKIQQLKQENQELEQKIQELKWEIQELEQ

4H3112-bN = target: T23, 4H3112-bN
T23 chain: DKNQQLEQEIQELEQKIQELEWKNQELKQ

4H3185-bN = target: T24, 4H3185-bN
T24 chain: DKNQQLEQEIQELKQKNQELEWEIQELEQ

4H331-bN = target: T25, 4H331-bN
T25 chain: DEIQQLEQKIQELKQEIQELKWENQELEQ

4H3354-bN = target: T26, 4H3354-bN
T26 chain: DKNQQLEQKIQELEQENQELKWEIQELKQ

4H338-bN = target: T27, 4H338-bN
T27 chain: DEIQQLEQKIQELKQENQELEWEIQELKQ

4H3427-bN = target: T28, 4H3427-bN
T28 chain: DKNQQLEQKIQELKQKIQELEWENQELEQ

4H3782-bN = target: T29, 4H3782-bN
T29 chain: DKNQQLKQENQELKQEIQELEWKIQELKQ

4H3855-bN = target: T30, 4H3855-bN
T30 chain: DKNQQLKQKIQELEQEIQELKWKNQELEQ

4H4001-bN = target: T31, 4H4001-bN
T31 chain: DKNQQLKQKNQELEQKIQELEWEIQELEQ

4H454-bN = target: T32, 4H454-bN
T32 chain: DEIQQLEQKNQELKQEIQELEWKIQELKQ

4H568-bN = target: T33, 4H568-bN
T33 chain: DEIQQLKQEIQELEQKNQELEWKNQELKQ

4H607-bN = target: T34, 4H607-bN
T34 chain: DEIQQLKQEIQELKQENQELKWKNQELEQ

4H687-bN = target: T35, 4H687-bN
T35 chain: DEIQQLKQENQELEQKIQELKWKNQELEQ

4H717-bN = target: T36, 4H717-bN
T36 chain: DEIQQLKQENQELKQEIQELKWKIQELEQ

4H72-bN = target: T37, 4H72-bN
T37 chain: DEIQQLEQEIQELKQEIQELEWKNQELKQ

4H754-bN = target: T38, 4H754-bN
T38 chain: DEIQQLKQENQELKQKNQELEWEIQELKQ

4H797-bN = target: T39, 4H797-bN
T39 chain: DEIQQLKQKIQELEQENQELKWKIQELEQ

4H883-bN = target: T40, 4H883-bN
T40 chain: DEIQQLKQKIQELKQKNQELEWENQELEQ

4H908-bN = target: T41, 4H908-bN
T41 chain: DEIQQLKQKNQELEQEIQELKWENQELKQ

4H918-bN = target: T42, 4H918-bN
T42 chain: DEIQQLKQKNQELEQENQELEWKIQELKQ

4H953-bN = target: T43, 4H953-bN
T43 chain: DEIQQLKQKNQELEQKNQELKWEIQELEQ

4H967-bN = target: T44, 4H967-bN
T44 chain: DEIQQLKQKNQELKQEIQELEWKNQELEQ

O10-bS = target: T45, O10-bS; settings: mean of both orientations
T45 chain: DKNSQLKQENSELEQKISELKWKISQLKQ

4H2134-bN = target: T46, 4H2134-bN
T46 chain: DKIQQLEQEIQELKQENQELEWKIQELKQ

4H2143-bN = target: T47, 4H2143-bN; settings: mean of both orientations
T47 chain: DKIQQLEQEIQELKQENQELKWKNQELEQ

4H2223-bN = target: T48, 4H2223-bN
T48 chain: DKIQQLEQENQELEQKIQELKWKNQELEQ

4H2438-bN = target: T49, 4H2438-bN
T49 chain: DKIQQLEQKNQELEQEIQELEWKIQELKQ

4H2473-bN = target: T50, 4H2473-bN
T50 chain: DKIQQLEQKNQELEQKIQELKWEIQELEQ

4H2503-bN = target: T51, 4H2503-bN
T51 chain: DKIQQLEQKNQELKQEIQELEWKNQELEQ

4H2588-bN = target: T52, 4H2588-bN
T52 chain: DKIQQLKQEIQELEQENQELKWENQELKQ

4H2692-bN = target: T53, 4H2692-bN
T53 chain: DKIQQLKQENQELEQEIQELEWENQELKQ

4H2717-bN = target: T54, 4H2717-bN
T54 chain: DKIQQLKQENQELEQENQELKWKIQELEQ

4H2839-bN = target: T55, 4H2839-bN
T55 chain: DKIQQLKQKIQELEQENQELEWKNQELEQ

4H2915-bN = target: T56, 4H2915-bN
T56 chain: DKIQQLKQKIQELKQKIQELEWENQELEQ

4H3057-bN = target: T57, 4H3057-bN
T57 chain: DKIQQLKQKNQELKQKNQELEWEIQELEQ

4H319-bN = target: T58, 4H319-bN
T58 chain: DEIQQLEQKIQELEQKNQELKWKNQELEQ

4H3277-bN = target: T59, 4H3277-bN
T59 chain: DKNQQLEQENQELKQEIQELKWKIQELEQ

4H348-bN = target: T60, 4H348-bN
T60 chain: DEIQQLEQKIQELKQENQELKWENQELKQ

4H40-bN = target: T61, 4H40-bN
T61 chain: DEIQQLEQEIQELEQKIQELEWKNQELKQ

4H477-bN = target: T62, 4H477-bN
T62 chain: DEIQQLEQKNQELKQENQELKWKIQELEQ

4H492-bN = target: T63, 4H492-bN
T63 chain: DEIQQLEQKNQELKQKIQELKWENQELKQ

4H741-bN = target: T64, 4H741-bN
T64 chain: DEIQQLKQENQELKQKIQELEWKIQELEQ

interaction score (O11-bS): -1.25
interaction score (O12-bS): 1.88
interaction score (O13-bS): -0.61
interaction score (O14-bS): -2.92
interaction score (O15-bS): -0.753
interaction score (O16-bS): -0.701
interaction score (O2-bS): -0.471
interaction score (O3-bS): -1.25
interaction score (O4-bS): 0.272
interaction score (O5-bS): -2.35
interaction score (O6-bS): -0.902
interaction score (O7-bS): -1.17
interaction score (O8-bS): -3.31
interaction score (O9-bS): -2.56
B1: O11-bS (peptide)
chain: DKISQLKQEISELEQENSELEWENSQLEQ

interaction score (4H1828-bN): 1.19
interaction score (4H1845-bN): -0.541
interaction score (4H2442-bN): -0.746
interaction score (4H2576-bN): 1.52
interaction score (4H2618-bN): 0.00935
interaction score (4H2667-bN): 1.18
interaction score (4H2697-bN): -0.202
interaction score (4H2729-bN): -0.165
interaction score (4H3112-bN): 0.443
interaction score (4H3185-bN): -0.135
interaction score (4H331-bN): 0.0332
interaction score (4H3354-bN): -1.74
interaction score (4H338-bN): -0.738
interaction score (4H3427-bN): -0.728
interaction score (4H3782-bN): 0.26
interaction score (4H3855-bN): 0.0633
interaction score (4H4001-bN): -0.709
interaction score (4H454-bN): -1.22
interaction score (4H568-bN): -0.67
interaction score (4H607-bN): -0.0859
interaction score (4H687-bN): -0.773
interaction score (4H717-bN): -0.318
interaction score (4H72-bN): 0.18
interaction score (4H754-bN): -2.15
interaction score (4H797-bN): -1.07
interaction score (4H883-bN): -0.284
interaction score (4H908-bN): -1.28
interaction score (4H918-bN): -1.16
interaction score (4H953-bN): -0.334
interaction score (4H967-bN): -0.704
B2: 4H1828-bN (peptide)
chain: DENQQLKQKIQELEQKIQELEWENQELKQ

interaction score (O10-bS): -1.52
interaction score (O11-bS): -2
interaction score (O12-bS): -2.63
interaction score (O13-bS): -0.797
interaction score (O15-bS): 0.0876
interaction score (O16-bS): -0.405
interaction score (O2-bS): -1.55
interaction score (O3-bS): -0.954
interaction score (O4-bS): -0.565
interaction score (O5-bS): -1.67
interaction score (O6-bS): -0.631
interaction score (O7-bS): -0.783
interaction score (O8-bS): -1.24
interaction score (O9-bS; mean of both orientations): 0.492
B3: O10-bS (peptide)
chain: DKNSQLKQENSELEQKISELKWKISQLKQ

interaction score (4H2134-bN): 1.45
interaction score (4H2143-bN): 0.912
interaction score (4H2223-bN): -0.162
interaction score (4H2438-bN): 0.477
interaction score (4H2473-bN): 0.214
interaction score (4H2503-bN): -0.659
interaction score (4H2588-bN): -0.119
interaction score (4H2692-bN): 0.473
interaction score (4H2717-bN): -0.26
interaction score (4H2839-bN): 0.142
interaction score (4H2915-bN): -1.35
interaction score (4H3057-bN): 0.93
interaction score (4H319-bN): 0.833
interaction score (4H3277-bN): -0.911
interaction score (4H348-bN): -0.138
interaction score (4H40-bN): -0.166
interaction score (4H477-bN): 0.581
interaction score (4H492-bN): -1.68
interaction score (4H741-bN): 0.14
B4: 4H2134-bN (peptide)
chain: DKIQQLEQEIQELKQENQELEWKIQELKQ

— publication PMC10397247
